Laboratory results from the supplement of paper PMC12042874.
± gives the uncertainty stated by the source.

test: amyloid nucleation score (Sup35N fusion, yeast selection) (log enrichment); library NNK3; higher = more nucleation; inactive = no reads after selection
In short: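 Nucleation score: DiMSum log enrichment of output over input reads, centred on the mode score of non-aggregating sequences. Only sequences with at least 100 input reads were kept. Reads came from Illumina sequencing of plasmid inserts before and after 7 days of growth at 30°C without adenine and uracil, in psi-negative yeast expressing Sup35N fused to peptides of 20 random codons after 24 hours of induction with 100 μM copper sulfate.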

Substance | amyloid nucleation score
LEDSLPQIPTQIVGWWFLKM | inactive
LENLLGMWVSCAWLSGSHFV | inactive
LEREDGVHWLMEEWVWCVDW | inactive
LESFWFMTGFF | inactive
LEYCVNL | inactive
LEYDRTFKILFCGGSGWHYS | inactive
LEYKYVGLSKFDALIRQWFL | inactive
LEYLKV | inactive
LFANTYVV | inactive
LFCAV | inactive
LFDLRDNVCSRVSRNYTAGA | inactive
LFDMLMHTSPC | inactive
LFFYRMYDGTWKGDLYIASE | inactive
LFGTFQWVDWGLFIL | inactive
LFHIQNESGVSYIKWFSLSI | 0.553 ± 0.27
LFLFQFRYGSWGFRGYMVGR | 0.837 ± 0.27
LFLMLG | inactive
LFLVIYYVFMYVA | inactive
LFMEYWSVATCRNSGIVFIV | inactive
LFMMCGHMEYAIVKNRVDKS | 0.016 ± 0.46
LFMSPVKSAWRIVCGNKFSQ | -0.642 ± 1.1
LFNGSSFITCSRTLGVL | inactive
LFNYVSMPANSSSRYTGMLL | inactive
LFPLMKQYLARGFSQDIRSA | inactive

Substance | amyloid nucleation score
LFPSADLATITG | inactive
LFRTDFMQTLLCHTIQLLYP | inactive
LFSICINICLY | 1.79 ± 0.092
LFSLIVNTRLETLEFKGQIP | 1.02 ± 0.11
LFSNNNCLNIWVWLV | 2.19 ± 0.081
LFSQCSLITHG | inactive
LFTLTWSWQLKGFFYYHGYV | inactive
LFTYVPDFSGLTLSTICCLV | 0.458 ± 0.35
LFVLGPDRLDCAQCKLLRDR | inactive
LFVLIDYNRYP | inactive
LFVWRSMNRFFQVYVLWSAE | inactive
LFVYSWKRFDGNWNKLSWNR | inactive
LFWYTAH | -0.361 ± 0.38
LFYGSTCIGTDM | -1.07 ± 1.1
LFYYSRTVESYLSNVCLVIR | inactive
LGDYSLTE | inactive
LGNKGNEMPLRSKVKRWFLL | inactive
LGNTCKIDWRISYHMTPSDI | inactive
LGQRWHVMLVLMSVYIF | inactive
LGRAQYETQFSATSVRLEPG | -0.142 ± 0.82
LGTTSYRV | inactive
LGVEVSMMTWCRMSSSMLMT | inactive
LGVLMLQSTRFAAWVSSLGR | inactive
LGWGHACMKFVDHCVRSSRS | inactive

Substance | amyloid nucleation score
LGYWKFSIRHFEGGRLQIHF | 2.7 ± 0.056
LHAMPLEGFLHLCPKLTCHQ | 0.676 ± 0.18
LHCSVSSQTELVPTENRGGW | inactive
LHHSVG | inactive
LHKTTMYFRKISLRRFEMLL | inactive
LHLAMSRTLSHSPHSCV | inactive
LHPSRLDGT | 0.411 ± 0.25
LHRCSLSKNDSAQSMMLTGC | inactive
LHRLRKWRRLY | inactive
LHSIFDSVHSCMRFWMIWSE | inactive
LHSVGVPMAPVKGTMWERER | inactive
LHTMGMSVGGMAMNKIDCPN | inactive
LIASLRIWPRESMPR | inactive
LICYQDLRLLAPWVQG | inactive
LIFALRFSLSVSCSCAKCFR | inactive
LIFLTMVSLLFGDQRRSGVQ | 0.221 ± 0.54
LIGDNRTGEVALYRFGSRMG | inactive
LIICLYSTAGRGIRWSDSTA | inactive
LIIHIFLVWDWSSIERRSIS | inactive
LILYSLGNNTHEMIYLWSNR | inactive
LIQPKSR | inactive
LIRCLVRSNVEFNNMGWWSS | inactive
LIRHFNKRVTSCNVVLLYNG | inactive
LIRRSWSYCVLVSCTDGSHS | inactive

Substance | amyloid nucleation score
LISMYHHCSGHLVAQDTVSV | inactive
LIWIVVGLSCYSTRL | 1.09 ± 0.13
LIYRHLGYCYNRGCWLVSWH | inactive
LIYRSLPFSCLSSGV | inactive
LKCSR | inactive
LKDNPNSLWC | -0.224 ± 1.1
LKGVKCVHSCWELPR | -0.117 ± 1.1
LKGVYSERPNRDAG | inactive
LKIRKFLTFKFSSALIIVVC | inactive
LKKYCMYMSSY | inactive
LKLSSC | 0.739 ± 0.17
LKLYDGSFAFLKCTSFMFNG | 1.19 ± 0.17
LKSCGMRVSKCCFIDICELC | 0.022 ± 0.75
LKSDI | inactive
LKSSPNPFMNNGFIISAILG | inactive
LKSWDTIWVEDNYSLC | -0.148 ± 0.81
LKVRLALLCRSEQRSPSTEV | inactive
LLAMPNQRWGTTLLYVQDWF | inactive
LLCMTPNIVNSRLMTYYPCH | inactive
LLCVDSTKTMIAYD | inactive
LLDCFKLYSSHLAEGRTTVT | inactive
LLDNFY | inactive
LLEIDVGISRCLGVTSETFW | inactive
LLFML | inactive

Substance | amyloid nucleation score
LLHPYARVDMRVQ | inactive
LLHTQMALGSLCVGYKIWLG | inactive
LLHVVFNTFLYRLEPEYTSK | inactive
LLIQNV | inactive
LLISDMGFNIVVLMTVSCFY | 0.049 ± 0.29
LLIVNWVFRILVYRTTRGLR | inactive
LLKGFSCFLNR | inactive
LLKLRIQIKVWTS | inactive
LLLDNITLGLWEFIRYRCGW | inactive
LLLIKPRKVPLIEVCGWETV | inactive
LLLTSVL | inactive
LLMDYYFVGLKLVPFAVPKV | 1.22 ± 0.15
LLMKMHDAIAG | inactive
LLMSLL | 0.09 ± 0.88
LLNDCYIRNKGLPHDERVWG | inactive
LLQSLGGKESNLGK | inactive
LLRRLYLTLACPFYLMHTKC | inactive
LLRSYFVVAC | inactive
LLSIYCY | inactive
LLSLIT | inactive
LLSTTSAVAGGMACVSRNMW | inactive
LLTFALIL | 0.462 ± 0.19
LLTFSH | inactive
LLTVSLPMDGST | inactive

Substance | amyloid nucleation score
LLTWMIG | 0.714 ± 0.29
LLVFSTGHARRFFSSYESRG | 1.28 ± 0.09
LLVLLVFTALY | inactive
LLVMSQVKYRHMSAAPA | inactive
LLWLKL | inactive
LLYARVIRRMCPKVVLFLSD | inactive
LLYSLWQSHLMLTGCNM | inactive
LMKFFINVKVSGGVTCVRIN | inactive
LMLANVNAA | inactive
LMLEISIHLLLYRVSISGYF | inactive
LMLIFRLNCG | 1.62 ± 0.097
LMLILCY | inactive
LMQFLAQLTSLSLSLLEVIW | inactive
LMRLLLNYWSITAIILL | inactive
LMSTKVVFEL | 0.076 ± 0.19
LNADVTMLKSNGVMTIT | inactive
LNCATFHYLTAVILMEYCRT | inactive
LNCGSAFRDVFTVMALNTRV | -0.14 ± 0.88
LNCMVITFVCFLVSNSIGGD | 1.71 ± 0.11
LNDDRISSGYAASIVKGLLT | -0.873 ± 1.4
LNDGALDGQSTDALMGMEMR | inactive
LNFAHAKMFSFITMVVY | inactive
LNFCFHYCI | 1.54 ± 0.12
LNLLSSSMIWSFVIGNRRVY | inactive

Substance | amyloid nucleation score
LNLMD | inactive
LNLSLVNCLMAVTCSLFL | 1.44 ± 0.13
LNLTGVISNLRVVNGQ | inactive
LNLVVRHFPTNR | inactive
LNNSEWSLS | inactive
LNQGHYSVDLSSATGTVTTF | inactive
LNRANNGVVYQMGVRDFQSS | inactive
LNRAPTAQLSGDCRVGVQAT | inactive
LNRSSFHLELITSTCKVFLV | inactive
LNSFSPGKNDCS | inactive
LNVDNCAYVFSDDNFMTDVN | inactive
LNWMRFYVMDMVTFGVWSDQ | 0.152 ± 0.31
LPAEMELVWHRRMNLP | inactive
LPCPACKVLNDKNSSKCENY | inactive
LPGNVFDVPLFNLDVYWVTR | inactive
LPRLFVVDYPSQ | inactive
LPSLQTG | inactive
LQGQHDAHWQSCSRLSECSQ | inactive
